According to patent publication KR20130126543A (dated 2013):

T1: IL-6R-Fc 항원 (human, UniProt P08887 20-365, limits assumed)
T1 construct: domain: IL-6R full domain; Made in-house as IL-6R-Fc; also called IL-6R full; IL-6R full domain인 단백질; not shown: Fc part (vector pYK 604)
T1 sequence (looked up): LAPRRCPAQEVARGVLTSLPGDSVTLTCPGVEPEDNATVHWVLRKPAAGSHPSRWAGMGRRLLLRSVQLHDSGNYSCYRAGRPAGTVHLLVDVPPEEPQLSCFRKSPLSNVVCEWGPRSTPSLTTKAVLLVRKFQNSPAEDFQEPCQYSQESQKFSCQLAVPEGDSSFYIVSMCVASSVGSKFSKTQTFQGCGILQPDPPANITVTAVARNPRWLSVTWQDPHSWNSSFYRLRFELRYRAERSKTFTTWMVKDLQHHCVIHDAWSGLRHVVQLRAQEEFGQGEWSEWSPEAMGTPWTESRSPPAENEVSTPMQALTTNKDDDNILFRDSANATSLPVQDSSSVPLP


Key:
IL-6R-Fc 항원 [1] = molecular target: T1, IL-6R-Fc 항원; assay: ELISA titration on coated IL-6R; fit R2 0.8
IL-6R-Fc 항원 [2] = molecular target: T1, IL-6R-Fc 항원; assay: ELISA titration on coated IL-6R (repeats the 3rd table)
IL-6R-Fc 항원 [3] = molecular target: T1, IL-6R-Fc 항원; assay: ELISA; IL-6R coated 100 ng/well; IgG at 25 nM; anti-Fab-HRP
IL-6R-Fc 항원 [4] = molecular target: T1, IL-6R-Fc 항원; assay: ELISA; IL-6R coated 100 ng/well; IgG at 50 nM; anti-Fab-HRP
IL-6R-Fc 항원 [5] = molecular target: T1, IL-6R-Fc 항원; assay: ELISA; IL-6R coated 100 ng/well; IgG at 12.5 nM; anti-Fab-HRP
IL-6R-Fc 항원 [6] = molecular target: T1, IL-6R-Fc 항원; assay: ELISA; IL-6R coated 100 ng/well; IgG at 6.25 nM; anti-Fab-HRP
IL-6R-Fc 항원 [7] = molecular target: T1, IL-6R-Fc 항원; assay: ELISA; IL-6R coated 100 ng/well; IgG at 3.125 nM; anti-Fab-HRP
IL-6R-Fc 항원 [8] = molecular target: T1, IL-6R-Fc 항원; assay: ELISA; IL-6R coated 100 ng/well; IgG at 1.5625 nM; anti-Fab-HRP
IL-6R-Fc 항원 [9] = molecular target: T1, IL-6R-Fc 항원; assay: ELISA; IL-6R coated 100 ng/well; IgG at 0.02441 nM; anti-Fab-HRP
IL-6R-Fc 항원 [10] = molecular target: T1, IL-6R-Fc 항원; assay: ELISA; IL-6R coated 100 ng/well; IgG at 0.04883 nM; anti-Fab-HRP
IL-6R-Fc 항원 [11] = molecular target: T1, IL-6R-Fc 항원; assay: ELISA; IL-6R coated 100 ng/well; IgG at 0.09766 nM; anti-Fab-HRP
IL-6R-Fc 항원 [12] = molecular target: T1, IL-6R-Fc 항원; assay: ELISA; IL-6R coated 100 ng/well; IgG at 0.19531 nM; anti-Fab-HRP
IL-6R-Fc 항원 [13] = molecular target: T1, IL-6R-Fc 항원; assay: ELISA; IL-6R coated 100 ng/well; IgG at 0.39063 nM; anti-Fab-HRP
IL-6R-Fc 항원 [14] = molecular target: T1, IL-6R-Fc 항원; assay: ELISA; IL-6R coated 100 ng/well; IgG at 0.78125 nM; anti-Fab-HRP
IL-6R-Fc 항원 [15] = molecular target: T1, IL-6R-Fc 항원; assay: ELISA titration on coated IL-6R; fit R2 0.98
IL-6R-Fc 항원 [16] = molecular target: T1, IL-6R-Fc 항원; assay: ELISA titration on coated IL-6R; fit R2 0.93
IL-6R-Fc 항원 [17] = molecular target: T1, IL-6R-Fc 항원; assay: ELISA titration on coated IL-6R; fit R2 0.75
IL-6R-Fc 항원 [18] = molecular target: T1, IL-6R-Fc 항원; assay: assay on IL-6R not described for the bispecific protein
TNF-α = molecular target: T2, TNF-α (UniProt P01375 77-233); assay: ELISA; TNF-α coated 100 ng/well; protein from 100 nM in 1/4 steps; anti-Human Fc-HRP
T2 construct: Coated at 100 ng/well; also called TNF-a; TNF-α 리간드
T2 sequence (P01375 77-233 limits assumed): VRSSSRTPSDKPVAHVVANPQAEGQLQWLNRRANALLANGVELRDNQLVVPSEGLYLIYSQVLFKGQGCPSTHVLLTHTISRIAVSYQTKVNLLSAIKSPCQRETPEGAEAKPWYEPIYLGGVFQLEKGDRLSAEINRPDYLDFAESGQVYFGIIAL

a-Myc = molecular target: T3, a-Myc; assay: mono phage ELISA; a-Myc coated 100 ng/well; anti-M13-HRP
T3 construct: Coated at 100 ng/well in the phage ELISAs

Binder	Kd (IL-6R-Fc 항원 [2])	OD 490 nm (IL-6R-Fc 항원 [3])	OD 490 nm (IL-6R-Fc 항원 [4])	OD 490 nm (IL-6R-Fc 항원 [5])	OD 490 nm (IL-6R-Fc 항원 [6])	OD 490 nm (IL-6R-Fc 항원 [7])	OD 490 nm (IL-6R-Fc 항원 [8])	OD 490 nm (IL-6R-Fc 항원 [9])	OD 490 nm (IL-6R-Fc 항원 [10])	OD 490 nm (IL-6R-Fc 항원 [11])	OD 490 nm (IL-6R-Fc 항원 [12])	OD 490 nm (IL-6R-Fc 항원 [13])	OD 490 nm (IL-6R-Fc 항원 [14])	OD 490 nm (a-myc) (a-Myc)	also measured
항 IL-6R 단클론 항체 D2 (antibody, V domains shown) VH: QVQLVESGAEVKKPGSSVKVSCKGSGDTFPNYAINWVRQAPGQGPEWMGRIIPMLGTSDYAEKFQGRVTITADKSTNTAYMGLNSLRSEDTAVYYCVKGPRYYGTDSYYLEKWGQGTMVTVSS VL: SQLVLTQPPSVSGAPGQTVTISCTGPTIGAGYDVHWYQQLPGAAPKLLIYGNLNRPSGVPDRFSGSKSGTSASLAITDLQAEDEADYYCHTYDSSLSGSWVFGGGTKLTVL	7.5 nM	1.94 OD490	2.38 OD490	1.47 OD490	0.981 OD490	0.719 OD490	0.584 OD490	0.449 OD490	0.451 OD490	0.45 OD490	0.469 OD490	0.473 OD490	0.479 OD490	–	Kd (IL-6R-Fc 항원 [1]): 7.5 nM
항 IL-6R 단클론 항체 F2 (antibody, V domains shown) VH: QVQLVESGAEVKKPGASVKVSCKASGYTFTNYYMHWVRQAPGQGLEWMGIINPSGGNTGYAQKFQGRVTMTRDMSTSTAYMELSSLRSEDTAVYYCARGLPWGENGLDVWGQGTTVTVSS VL: SQLVLTQPSSVSGAPGQTVTISCTGSSSNIGAGYDVHWYQQLPGTAPKVLIYGDSDRPSGVPDRFSGSKSATSASLAITGLQAEDEADYYCQSYDSSLSAYVFGTGTKVTVL	0.35 nM	2.89 OD490	2.99 OD490	2.92 OD490	2.71 OD490	2.72 OD490	2.43 OD490	0.535 OD490	0.584 OD490	0.743 OD490	1.01 OD490	1.41 OD490	1.9 OD490	–	Kd (IL-6R-Fc 항원 [15]): 0.35 nM
항 IL-6R 단클론 항체 A7 (antibody, V domains shown) VH: QMQLVESGGGLVQPGTSLRLSCAASGFKFEDYAMHWVRQAPGKGLEWVSGVSWNSGTIAYVDSVKGRFTISRDNAKNSLYLQMNSLRAEDTAVYYCARDFTYFYESSGYYAFDLWGQGTMVTVSS VL: SQLVLTQPPSVSGAPGQRVTISCTGTNSNIGAGYDVHWYQQVPGTTPKLLIYGNTNRPSGVPDRFSGSKSGTSASLAITGLQAEDGGDYYCQSFDSSLTGSVFGTGTKVTVL	2.3 nM	2.84 OD490	3.1 OD490	2.58 OD490	2.13 OD490	1.64 OD490	1.17 OD490	0.514 OD490	0.498 OD490	0.497 OD490	0.546 OD490	0.618 OD490	0.782 OD490	–	Kd (IL-6R-Fc 항원 [16]): 2.3 nM
항 IL-6R 단클론 항체 B10 (antibody, V domains shown) VH: QVQLVESGGGLVQPGGSLRLSCAASGFIFDDYAMFWVRQVPGKGLEWVAGINWNGNGIGYGDSVRGRFIISRDNARNSLDLQMNSLRAEDTAVYYCARPSLYGGNSEFDLWGQGTLVTVSS VL: SQLVLTQPPSVSGAPGQTVTISCTGPTIGAGYDVHWYQQLPGAAPKLLIYGNLNRPSGVPDRFSGSKSGTSASLAITDLQAEDEADYYCHTYDSSLSGSWVFGGGTKLTVL	4.3 nM	1.78 OD490	2.09 OD490	1.39 OD490	1.04 OD490	0.761 OD490	0.607 OD490	0.468 OD490	0.451 OD490	0.462 OD490	0.429 OD490	0.476 OD490	0.5 OD490	–	Kd (IL-6R-Fc 항원 [17]): 4.3 nM
A7/TNFR2 (bispecific antibody, also called Anti-IL-6R/TNFR2; Dual) heavy: not shown light: DVHSQLVLTQPPSVSGAPGQRVTISCTGTNSNIGAGYDVHWYQQVPGTTPKLLIYGNTNRPSGVPDRFSGSKSGTSASLAITGLQAEDGGDYYCQSFDSSLTGSVFGTGTKVTVL	–	–	–	–	–	–	–	–	–	–	–	–	–	–	Kd (IL-6R-Fc 항원 [18]): 2.3 nM
B10/TNFR2 (bispecific antibody, also called Anti-IL-6R/TNFR2) heavy: not shown light: DVHSQLVLTQPPSVSGAPGQTVTISCTGPTIGAGYDVHWYQQLPGAAPKLLIYGNLNRPSGVPDRFSGSKSGTSASLAITDLQAEDEADYYCHTYDSSLSGSWVFGGGTKLTVL	–	–	–	–	–	–	–	–	–	–	–	–	–	–	Kd (IL-6R-Fc 항원 [18]): 4.3 nM; Kd (TNF-α): 0.72 nM
모노 파아지 클론 B10 (scFv, V domains shown, also called 6B10) VH: QVQLVESGGGLVQPGGSLRLSCAASGFIFDDYAMFWVRQVPGKGLEWVAGINWNGNGIGYGDSVRGRFIISRDNARNSLDLQMNSLRAEDTAVYYCARPSLYGGNSEFDLWGQGTLVTVSS VL: SQLVLTQPPSVSGAPGQTVTISCTGPTIGAGYDVHWYQQLPGAAPKLLIYGNLNRPSGVPDRFSGSKSGTSASLAITDLQAEDEADYYCHTYDSSLSGSWVFGGGTKLTVL	–	–	–	–	–	–	–	–	–	–	–	–	–	0.113 OD490	–
모노 파아지 클론 D2 (scFv, V domains shown, also called D02) VH: QVQLVESGAEVKKPGSSVKVSCKGSGDTFPNYAINWVRQAPGQGPEWMGRIIPMLGTSDYAEKFQGRVTITADKSTNTAYMGLNSLRSEDTAVYYCVKGPRYYGTDSYYLEKWGQGTMVTVSS VL: SQLVLTQPPSVSGAPGQTVTISCTGPTIGAGYDVHWYQQLPGAAPKLLIYGNLNRPSGVPDRFSGSKSGTSASLAITDLQAEDEADYYCHTYDSSLSGSWVFGGGTKLTVL	–	–	–	–	–	–	–	–	–	–	–	–	–	0.303 OD490	–
모노 파아지 클론 F2 (scFv, V domains shown, also called F02) VH: QVQLVESGAEVKKPGASVKVSCKASGYTFTNYYMHWVRQAPGQGLEWMGIINPSGGNTGYAQKFQGRVTMTRDMSTSTAYMELSSLRSEDTAVYYCARGLPWGENGLDVWGQGTTVTVSS VL: SQLVLTQPSSVSGAPGQTVTISCTGSSSNIGAGYDVHWYQQLPGTAPKVLIYGDSDRPSGVPDRFSGSKSATSASLAITGLQAEDEADYYCQSYDSSLSAYVFGTGTKVTVL	–	–	–	–	–	–	–	–	–	–	–	–	–	0.287 OD490	–
모노 파아지 클론 A7 (scFv, V domains shown, also called A07) VH: QMQLVESGGGLVQPGTSLRLSCAASGFKFEDYAMHWVRQAPGKGLEWVSGVSWNSGTIAYVDSVKGRFTISRDNAKNSLYLQMNSLRAEDTAVYYCARDFTYFYESSGYYAFDLWGQGTMVTVSS VL: SQLVLTQPPSVSGAPGQRVTISCTGTNSNIGAGYDVHWYQQVPGTTPKLLIYGNTNRPSGVPDRFSGSKSGTSASLAITGLQAEDGGDYYCQSFDSSLTGSVFGTGTKVTVL	–	–	–	–	–	–	–	–	–	–	–	–	–	0.0797 OD490	–
